According to publication PMC11388335:

B1: SDS22^TAMRA (GGG-SDS22 labeled by sortase with a TAMRA Strep-tag peptide) (natural protein)
chain: MAAERGAGQQQSQEMMEVDRRVESEESGDEEGKKHSSGIVADLSEQSLKDGEERGEEDPEEEHELPVDMETINLDRDAEDVDLNHYRIGKIEGFEVLKKVKTLCLRQNLIKCIENLEELQSLRELDLYDNQIKKIENLEALTELEILDISFNLLRNIEGVDKLTRLKKLFLVNNKISKIENLSNLHQLQMLELGSNRIRAIENIDTLTNLESLFLGKNKITKLQNLDALTNLTVLSMQSNRLTKIEGLQNLVNLRELYLSHNGIEVIEGLENNNKLTMLDIASNRIKKIENISHLTELQEFWMNDNLLESWSDLDELKGARSLETVYLERNPLQKDPQYRRKVMLALPSVRQIDATFVRF
modifications: TAMRA on the ligated peptide (TAMRA)-…

What was measured:
[1] = target: PP1^Clover (PP1γ catalytic subunit fused to the FRET donor Clover) (human) (UniProt P36873); assay: FRET or BRET; binary complexes SDS22^TAMRA-PP1^Clover (SP) or PP1^Clover-I3^TAMRA (PI) lacking the other subunit, incubated with p97, p37, ATP and NIPP1 as in a3
[2] = target: PP1^Clover (PP1γ catalytic subunit fused to the FRET donor Clover) (human) (UniProt P36873); assay: FRET or BRET; ternary complexes SDS22^TAMRA-PP1^Clover-I3 or SDS22-PP1^Clover-I3^TAMRA (160 nM); FRET while the complex is formed, lost with p97 (160 nM), p37 (480 nM), ATP (2 mM) and unlabeled NIPP1 (240 nM); p97 buffer + 2% BSA + 1 mM DTT, 30 °C
[3] = target: PP1^Clover (PP1γ catalytic subunit fused to the FRET donor Clover) (human) (UniProt P36873); assay: FRET or BRET; in vitro subunit exchange: SDS22-PP1^Clover-I3 (160 nM) with p97 (160 nM), p37 (480 nM), ATP (2 mM) and NIPP1^TAMRA (240 nM); p97 buffer + 2% BSA + 1 mM DTT, 30 °C; rise of acceptor/donor ratio
[4] = target: His-PP1γ^Clover (PP1 of the binary SP and NP complexes) (human) (UniProt P36873); assay: FRET or BRET; binary complexes SDS22^TAMRA-PP1^Clover (SP) or PP1^Clover-I3^TAMRA (PI) lacking the other subunit, incubated with p97, p37, ATP and NIPP1 as in a3

| Molecule | rate constant of p97-p37-mediated dissociation, binary complex without SDS22 (exponential fit of FRET) [1] [min⁻¹] | rate constant of p97-p37-mediated dissociation (exponential fit of FRET) [2] [min⁻¹] | rate constant of p97-p37-mediated dissociation, ternary complex (exponential fit of FRET) [2] [min⁻¹] | rate constant of NIPP1 association after p97-p37-mediated release of PP1 (exponential fit of FRET) [3] [min⁻¹] | rate constant of dissociation with p97-p37, binary complex without I3 (exponential fit of FRET) [4] [min⁻¹] |
| --- | --- | --- | --- | --- | --- |
| I3^TAMRA (His-I3-LPETGGG labeled by sortase with a TAMRA Strep-tag peptide) (from UniProt O60927 1-126) (natural protein) | 0.0734 | 0.69 | 0.644 | – | – |
| NIPP1^TAMRA (His-NIPP1-LPETGGG labeled by sortase with a TAMRA Strep-tag peptide) (from UniProt Q12972 1-351) (natural protein) | – | – | – | 0.33 | – |
| B1 | – | 0.64 | 0.714 | – | 0.0003 |
